Results as given in PMC12674617 (2025).

B1: full-length BICD2 tagged on the C-terminus with mini-TurboID (BICD2-mTrbo) [human] / KIF5B [human (endogenous in HEK293)] (parent complex)
chain 1: MSAPSEEEEYARLVMEAQPEWLRAEVKRLSHELAETTREKIQAAEYGLAVLEEKHQLKLQFEELEVDYEAIRSEMEQLKEAFGQAHTNHKKVAADGESREESLIQESASKEQYYVRKVLELQTELKQLRNVLTNTQSENERLASVAQELKEINQNVEIQRGRLRDDIKEYKFREARLLQDYSELEEENISLQKQVSVLRQNQVEFEGLKHEIKRLEEETEYLNSQLEDAIRLKEISERQLEEALETLKTEREQKNSLRKELSHYMSINDSFYTSHLHVSLDGLKFSDDAAEPNNDAEALVNGFEHGGLAKLPLDNKTSTPKKEGLAPPSPSLVSDLLSELNISEIQKLKQQLMQMEREKAGLLATLQDTQKQLEHTRGSLSEQQEKVTRLTENLSALRRLQASKERQTALDNEKDRDSHEDGDYYEVDINGPEILACKYHVAVAEAGELREQLKALRSTHEAREAQHAEEKGRYEAEGQALTEKVSLLEKASRQDRELLARLEKELKKVSDVAGETQGSLSVAQDELVTFSEELANLYHHVCMCNNETPNRVMLDYYREGQGGAGRTSPGGRTSPEARGRRSPILLPKGLLAPEAGRADGGTGDSSPSPGSSLPSPLSDPRREPMNIYNLIAIIRDQIKHLQAAVDRTTELSRQRIASQELGPAVDKDKEALMEEILKLKSLLSTKREQITTLRTVLKANKQTAEVALANLKSKYENEKAMVTETMMKLRNELKALKEDAATFSSLRAMFATRCDEYITQLDEMQRQLAAAEDEKKTLNSLLRMAIQQKLALTQRLELLELDHEQTRRGRAKAAPKTKPATPSL
chain 2: MADLAECNIKVMCRFRPLNESEVNRGDKYIAKFQGEDTVVIASKPYAFDRVFQSSTSQEQVYNDCAKKIVKDVLEGYNGTIFAYGQTSSGKTHTMEGKLHDPEGMGIIPRIVQDIFNYIYSMDENLEFHIKVSYFEIYLDKIRDLLDVSKTNLSVHEDKNRVPYVKGCTERFVCSPDEVMDTIDEGKSNRHVAVTNMNEHSSRSHSIFLINVKQENTQTEQKLSGKLYLVDLAGSEKVSKTGAEGAVLDEAKNINKSLSALGNVISALAEGSTYVPYRDSKMTRILQDSLGGNCRTTIVICCSPSSYNESETKSTLLFGQRAKTIKNTVCVNVELTAEQWKKKYEKEKEKNKILRNTIQWLENELNRWRNGETVPIDEQFDKEKANLEAFTVDKDITLTNDKPATAIGVIGNFTDAERRKCEEEIAKLYKQLDDKDEEINQQSQLVEKLKTQMLDQEELLASTRRDQDNMQAELNRLQAENDASKEEVKEVLQALEELAVNYDQKSQEVEDKTKEYELLSDELNQKSATLASIDAELQKLKEMTNHQKKRAAEMMASLLKDLAEIGIAVGNNDVKQPEGTGMIDEEFTVARLYISKMKSEVKTMVKRCKQLESTQTESNKKMEENEKELAACQLRISQHEAKIKSLTEYLQNVEQKKRQLEESVDALSEELVQLRAQEKVHEMEKEHLNKVQTANEVKQAVEQQIQSHRETHQKQISSLRDEVEAKAKLITDLQDQNQKMMLEQERLRVEHEKLKATDQEKSRKLHELTVMQDRREQARQDLKGLEETVAKELQTLHNLRKLFVQDLATRVKKSAEIDSDDTGGSAAQKQKISFLENNLEQLTKVHKQLVRDNADLRCELPKLEKRLRATAERVKALESALKEAKENASRDRKRYQQEVDRIKEAVRSKNMARRGHSAQIAKPIRPGQHPAASPTHPSAIRGGGAFVQNSQPVAVRGGGGKQV

Variants of: B1
Test: proximity biotinylation, streptavidin bead purification, western blot quantification; parent: 1; read off a plot

ratio to parent	Variant
~0.86	chain 1 N188T
~0.78	chain 1 R694C
~0.5	chain 1 R747C
